Reference: patent publication US20180155451A1 (published 2018)

B1: GpH7-A5/GpH7-B3 variant A330_01G/GpL16-k0 (antibody, human IgG1, kappa)
heavy 1: not shown
heavy 2: not shown
light: DIVMTQSPLSLPVTPGEPASISCQASESLVHSNRNTYLHWYLQKPGQSPQLLIYKVSNRFSGVPDRFSGSGSGTDFTLKISRVEAEDVGVYYCSQNTHVPPTFGQGTKVEIERTVAAPSVFIFPPSDEQLKSGTASVVCLLNNFYPREAKVQWKVDNALQSGNSQESVTEQDSKDSTYSLSSTLTLSKADYEKHKVYACEVTHQGLSSPVTKSFNRGEC
notes: He Ab: mutation in the GpH7-B3 H chain only; also called He Ab
B2: GpH7-A5/GpH7-B3 variant L328_09D/GpL16-k0 (antibody, human IgG1, kappa)
heavy 1: not shown
heavy 2: not shown
light: B1 light
notes: as for B1
B3: GpH7-A5/GpH7-B3 variant D265_03V/GpL16-k0 (antibody, human IgG1, kappa)
heavy 1: not shown
heavy 2: not shown
light: B1 light
notes: as for B1
B4: GpH7-A5/GpH7-B3 variant L328_06M/GpL16-k0 (antibody, human IgG1, kappa)
heavy 1: not shown
heavy 2: not shown
light: B1 light
notes: as for B1
B5: GpH7-A5/GpH7-B3 variant D265_06M/GpL16-k0 (antibody, human IgG1, kappa)
heavy 1: not shown
heavy 2: not shown
light: B1 light
notes: as for B1
B6: GpH7-A5/GpH7-B3 variant D265_14T/GpL16-k0 (antibody, human IgG1, kappa)
heavy 1: not shown
heavy 2: not shown
light: B1 light
notes: as for B1
B7: GpH7-A5/GpH7-B3 variant D265_04F/GpL16-k0 (antibody, human IgG1, kappa)
heavy 1: not shown
heavy 2: not shown
light: B1 light
notes: as for B1
B8: GpH7-A5/GpH7-B3 variant D265_08L/GpL16-k0 (antibody, human IgG1, kappa)
heavy 1: not shown
heavy 2: not shown
light: B1 light
notes: as for B1
B9: GpH7-A5/GpH7-B3 variant I332_04F/GpL16-k0 (antibody, human IgG1, kappa)
heavy 1: not shown
heavy 2: not shown
light: B1 light
notes: as for B1
B10: GpH7-A5/GpH7-B3 variant L328_15Y/GpL16-k0 (antibody, human IgG1, kappa)
heavy 1: not shown
heavy 2: not shown
light: B1 light
notes: as for B1
B11: GpH7-A5/GpH7-B3 variant N325_07I/GpL16-k0 (antibody, human IgG1, kappa)
heavy 1: not shown
heavy 2: not shown
light: B1 light
notes: as for B1
B12: GpH7-A5/GpH7-B3 variant N325_04F/GpL16-k0 (antibody, human IgG1, kappa)
heavy 1: not shown
heavy 2: not shown
light: B1 light
notes: as for B1
B13: GpH7-A5/GpH7-B3 variant L328_07I/GpL16-k0 (antibody, human IgG1, kappa)
heavy 1: not shown
heavy 2: not shown
light: B1 light
notes: as for B1
B14: GpH7-A5/GpH7-B3 variant L328_19Q/GpL16-k0 (antibody, human IgG1, kappa)
heavy 1: not shown
heavy 2: not shown
light: B1 light
notes: as for B1
B15: GpH7-A5/GpH7-B3 variant L328_13S/GpL16-k0 (antibody, human IgG1, kappa)
heavy 1: not shown
heavy 2: not shown
light: B1 light
notes: as for B1
B16: GpH7-A5/GpH7-B3 variant D265_12R/GpL16-k0 (antibody, human IgG1, kappa)
heavy 1: not shown
heavy 2: not shown
light: B1 light
notes: as for B1
B17: GpH7-A5/GpH7-B3 variant N325_06M/GpL16-k0 (antibody, human IgG1, kappa)
heavy 1: not shown
heavy 2: not shown
light: B1 light
notes: as for B1
B18: GpH7-A5/GpH7-B3 variant D265_18N/GpL16-k0 (antibody, human IgG1, kappa)
heavy 1: not shown
heavy 2: not shown
light: B1 light
notes: as for B1
B19: GpH7-A5/GpH7-B3 variant D265_16H/GpL16-k0 (antibody, human IgG1, kappa)
heavy 1: not shown
heavy 2: not shown
light: B1 light
notes: as for B1
B20: GpH7-A5/GpH7-B3 variant N325_20W/GpL16-k0 (antibody, human IgG1, kappa)
heavy 1: not shown
heavy 2: not shown
light: B1 light
notes: as for B1
B21: GpH7-A5/GpH7-B3 variant L328_20W/GpL16-k0 (antibody, human IgG1, kappa)
heavy 1: not shown
heavy 2: not shown
light: B1 light
notes: as for B1
B22: GpH7-A5/GpH7-B3 variant P331_04F/GpL16-k0 (antibody, human IgG1, kappa)
heavy 1: not shown
heavy 2: not shown
light: B1 light
notes: as for B1
B23: GpH7-A5/GpH7-B3 variant D265_15Y/GpL16-k0 (antibody, human IgG1, kappa)
heavy 1: not shown
heavy 2: not shown
light: B1 light
notes: as for B1
B24: GpH7-A5/GpH7-B3 variant D265_11K/GpL16-k0 (antibody, human IgG1, kappa)
heavy 1: not shown
heavy 2: not shown
light: B1 light
notes: as for B1
B25: GpH7-A5/GpH7-B3 variant K334_12R/GpL16-k0 (antibody, human IgG1, kappa)
heavy 1: not shown
heavy 2: not shown
light: B1 light
notes: as for B1
B26: GpH7-A5/GpH7-B3 variant D265_20W/GpL16-k0 (antibody, human IgG1, kappa)
heavy 1: not shown
heavy 2: not shown
light: B1 light
notes: as for B1
B27: GpH7-A5/GpH7-B3 variant P331_03V/GpL16-k0 (antibody, human IgG1, kappa)
heavy 1: not shown
heavy 2: not shown
light: B1 light
notes: as for B1
B28: GpH7-A5/GpH7-B3 variant D265_10E/GpL16-k0 (antibody, human IgG1, kappa)
heavy 1: not shown
heavy 2: not shown
light: B1 light
notes: as for B1
B29: GpH7-A5/GpH7-B3 variant L328_04F/GpL16-k0 (antibody, human IgG1, kappa)
heavy 1: not shown
heavy 2: not shown
light: B1 light
notes: as for B1
B30: GpH7-A5/GpH7-B3 variant L328_10E/GpL16-k0 (antibody, human IgG1, kappa)
heavy 1: not shown
heavy 2: not shown
light: B1 light
notes: as for B1
B31: GpH7-A5/GpH7-B3 variant P331_06M/GpL16-k0 (antibody, human IgG1, kappa)
heavy 1: not shown
heavy 2: not shown
light: B1 light
notes: as for B1
B32: GpH7-A5/GpH7-B3 variant D265_13S/GpL16-k0 (antibody, human IgG1, kappa)
heavy 1: not shown
heavy 2: not shown
light: B1 light
notes: as for B1
B33: GpH7-A5/GpH7-B3 variant L328_03V/GpL16-k0 (antibody, human IgG1, kappa)
heavy 1: not shown
heavy 2: not shown
light: B1 light
notes: as for B1
B34: GpH7-A5/GpH7-B3 variant D265_07I/GpL16-k0 (antibody, human IgG1, kappa)
heavy 1: not shown
heavy 2: not shown
light: B1 light
notes: as for B1
B35: GpH7-A5/GpH7-B3 variant L328_02A/GpL16-k0 (antibody, human IgG1, kappa)
heavy 1: not shown
heavy 2: not shown
light: B1 light
notes: as for B1
B36: GpH7-A5/GpH7-B3 variant N325_03V/GpL16-k0 (antibody, human IgG1, kappa)
heavy 1: not shown
heavy 2: not shown
light: B1 light
notes: as for B1
B37: GpH7-A5/GpH7-B3 variant N325_09D/GpL16-k0 (antibody, human IgG1, kappa)
heavy 1: not shown
heavy 2: not shown
light: B1 light
notes: as for B1
B38: GpH7-A5/GpH7-B3 variant L328_14T/GpL16-k0 (antibody, human IgG1, kappa)
heavy 1: not shown
heavy 2: not shown
light: B1 light
notes: as for B1
B39: GpH7-A5/GpH7-B3 variant N325_13S/GpL16-k0 (antibody, human IgG1, kappa)
heavy 1: not shown
heavy 2: not shown
light: B1 light
notes: as for B1
B40: GpH7-A5/GpH7-B3 variant N325_08L/GpL16-k0 (antibody, human IgG1, kappa)
heavy 1: not shown
heavy 2: not shown
light: B1 light
notes: as for B1

target: T1, FcγRIIIa extracellular domain with C-terminal His tag (human, UniProt P08637 17-208); test: SPR (Biacore), relative binding, GpH7-A5/GpH7-B3/GpL16-k0 = 100
T1 construct: extracellular domain; also called 3a; FcgRIIIa; not shown: His tag at the C terminus
Method: (§1) Analysis of interaction between objective antibody and the FcγR was carried out using Biacore T100 (GE Healthcare). HBS-EP+ (GE Healthcare) was used as the running buffer, and the measurement temperature was set to 25° C. Chips produced by immobilizing the antigen peptide by the amine coupling method to a Series S Sencor Chip CM5 (GE Healthcare), or alternatively, chips produced by allowing preliminarily biotinylated antigen peptides to interact with and immobilize onto a Series S Sensor Chip SA (certified) (GE Healthcare) were used. Antibodies of interest were captured onto an antigen peptide-immobilized chip, and allowed to interact to each FcγR diluted with running buffer. To regenerate and repeatedly use the chip, the antibodies captured on the chip were washed off by reacting 10 mM glycine-HCl, pH 1.5.
(§2) The FcγR-binding activity of each antibody was assessed primarily using as an indicator the FcγR-binding activity and dissociation constant for FcγR.

T1 sequence (P08637 17-208): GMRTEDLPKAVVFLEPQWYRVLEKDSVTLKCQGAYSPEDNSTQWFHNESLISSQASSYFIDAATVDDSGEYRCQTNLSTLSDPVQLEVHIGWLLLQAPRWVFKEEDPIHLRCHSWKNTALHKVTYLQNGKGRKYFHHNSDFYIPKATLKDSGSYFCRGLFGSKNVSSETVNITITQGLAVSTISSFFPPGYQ

Binder	He/Con_3a
B1	89.1 % of control
B2	47.8 % of control
B3	0.6 % of control
B4	78.6 % of control
B5	2.6 % of control
B6	4.3 % of control
B7	0 % of control
B8	0 % of control
B9	97.6 % of control
B10	68.3 % of control
B11	28.7 % of control
B12	20.7 % of control
B13	84 % of control
B14	81.1 % of control
B15	71.7 % of control
B16	3.2 % of control
B17	31.4 % of control
B18	4.6 % of control
B19	13.6 % of control
B20	32.8 % of control

Binder	He/Con_3a
B21	37.4 % of control
B22	77.3 % of control
B23	-1.7 % of control
B24	2.5 % of control
B25	90.8 % of control
B26	-0.5 % of control
B27	73.2 % of control
B28	20.1 % of control
B29	79.3 % of control
B30	53.4 % of control
B31	74.8 % of control
B32	3.9 % of control
B33	78.7 % of control
B34	-0.8 % of control
B35	79.1 % of control
B36	30.3 % of control
B37	48 % of control
B38	75.3 % of control
B39	65.1 % of control
B40	33.3 % of control

target: T2, FcγRIIb extracellular domain with C-terminal His tag (human, UniProt P31994 43-217); test: as above
T2 construct: extracellular domain; also called 2b; FcgRIIb; not shown: His tag at the C terminus
T2 sequence (looked up): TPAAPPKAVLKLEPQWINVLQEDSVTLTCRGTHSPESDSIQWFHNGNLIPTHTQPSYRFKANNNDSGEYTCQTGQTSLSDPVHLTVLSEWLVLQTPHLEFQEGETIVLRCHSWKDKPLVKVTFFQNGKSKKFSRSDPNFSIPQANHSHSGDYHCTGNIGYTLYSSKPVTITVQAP
Method: as §1, §2

Binder	He/Con_2b
B1	104 % of control
B2	199 % of control
B3	3.2 % of control
B4	142 % of control
B5	10 % of control
B6	16 % of control
B7	3.2 % of control
B8	4.6 % of control
B9	104 % of control
B10	193 % of control
B11	171 % of control
B12	143 % of control
B13	160 % of control
B14	105 % of control
B15	149 % of control
B16	15 % of control
B17	217 % of control
B18	6.1 % of control
B19	38.3 % of control
B20	169 % of control

Binder	He/Con_2b
B21	235 % of control
B22	110 % of control
B23	0.6 % of control
B24	14.9 % of control
B25	111 % of control
B26	1.1 % of control
B27	119 % of control
B28	38.2 % of control
B29	219 % of control
B30	172 % of control
B31	102 % of control
B32	11.3 % of control
B33	126 % of control
B34	1.3 % of control
B35	144 % of control
B36	111 % of control
B37	124 % of control
B38	141 % of control
B39	177 % of control
B40	197 % of control
